Consider 2 molecules from patent publication US20220175873A1.

No end group written: not given here.

For assay [1], the target named is FQSE (SEQ ID NO:10)-specific binding sites in rat cortex membranes (rat). Put plainly: radioligand analysis, rat cortex membranes, incubation 10 min at 4 °C.
Assay [2] has the same target. Put plainly: radioligand analysis, rat cortex membranes, incubation 20 min at 4 °C.
Assay [3] has the same target. Put plainly: radioligand analysis, rat cortex membranes, incubation 10 min at 37 °C.
For assay [4] the target is unchanged. Put plainly: radioligand analysis, rat cortex membranes, incubation 20 min at 24 °C.
The target is the same in assay [5]. Put plainly: radioligand analysis, rat cortex membranes, incubation 20 min at 37 °C.
For assay [6] the target is unchanged. Put plainly: radioligand analysis, rat cortex membranes, incubation 30 min at 24 °C.
For assay [7] the target is unchanged. Put plainly: radioligand analysis, rat cortex membranes, incubation 30 min at 37 °C.
Assay [8] has the same target. Put plainly: radioligand analysis, rat cortex membranes, incubation 25 min at 24 °C (selected condition).
The target is the same in assay [9]. Put plainly: radioligand analysis with [3H] FQSE and unlabeled FQSE on membranes isolated by various techniques.
Assay [10] shares this target. Put plainly: radioligand analysis, rat cortex membranes, buffer with added salts (NaCl, KCl, KH2PO4, CaCl2, MgCl2).
Assay [11] addresses NMDA receptors of rat hippocampal plasma membranes (rat). Put plainly: radioligand analysis with [^3H]-FQSE and unlabeled FQSE on rat hippocampal membranes isolated for NMDA receptors (negative control).
For assay [12], the target named is FQSE (SEQ ID NO:10)-specific binding sites in rat cortex membranes (rat). Put plainly: displacement of [^3H]-FQSE by unlabeled FQSE, rat cortex membranes, 25 min at room temperature.
In assay [13] the target is GABAA receptor of rat cerebral cortex plasma membranes (rat). Put plainly: [^3H]-Flunitrazepam radioligand analysis (benzodiazepine site), 30 min incubation, 4 °C; FQSE 10^-4 M.
Assay [14] shares this target. Put plainly: [^3H]-Flunitrazepam radioligand analysis (benzodiazepine site), 30 min incubation, 4 °C; FQSE 10^-5 M.
For assay [15] the target is unchanged. Put plainly: [^3H]-Flunitrazepam radioligand analysis (benzodiazepine site), 30 min incubation, 24 °C; FQSE 10^-4 M.
Assay [16] has the same target. Put plainly: [^3H]-Flunitrazepam radioligand analysis (benzodiazepine site), 30 min incubation, 24 °C; FQSE 10^-5 M.
The target is the same in assay [17]. Put plainly: [^3H]-Flunitrazepam radioligand analysis (benzodiazepine site), 25 min pre-incubation + 30 min incubation, 4 °C; FQSE 10^-4 M.
For assay [18] the target is unchanged. Put plainly: [^3H]-Flunitrazepam radioligand analysis (benzodiazepine site), 25 min pre-incubation + 30 min incubation, 4 °C; FQSE 10^-5 M.
For assay [19] the target is unchanged. Put plainly: [^3H]-Flunitrazepam radioligand analysis (benzodiazepine site), 25 min pre-incubation + 30 min incubation, 24 °C; FQSE 10^-4 M.
Assay [20] shares this target. Put plainly: [^3H]-Flunitrazepam radioligand analysis (benzodiazepine site), 25 min pre-incubation + 30 min incubation, 24 °C; FQSE 10^-5 M.

For FQSE (also: tritium label ([3H]), position not given here) [[^3H]-FQSE (SEQ ID NO:10), tritium radiolabeled peptide], the % percentage of specific binding of total binding in [1] was found to be 47%; in [2], 48%; in [3] it was 72%; in assay [4], 75%; in assay [5] it was 79%; in [6] it was 78%. For the same molecule, the figures for the % percentage of specific binding of total binding in assay [7] and in assay [8] were 77% and 86%, respectively. The molecule further showed a specific FQSE binding percentage of the total binding in [9] of 0 to 47%. Further, the percentage of specific binding in assay [10] was determined as 63%. For the same molecule, the difference between total and non-specific binding in assay [11] worked out at 11%.
In the case of FQSE [FQSE (SEQ ID NO:10) peptide, unlabeled], in assay [12], the IC50 amounted to 2000 nM. Further, the Specific binding of [^3H]-Flunitrazepam, relative to control levels, % stood at 100% in [13]; 100% in assay [14]; 101% in assay [15]; 101% in assay [16]; 101% in assay [17]; 101% in assay [18]. Also, the Specific binding of [^3H]-Flunitrazepam, relative to control levels, % in [19] turned out to be 101%; in assay [20], 99.8%.
